Experimental findings from paper PMC3807968 (2014) are described below.

This test addresses T1, ligand 5 on uncrosslinked micelles, 5% loading (5-UXL) (not fully specified; also: uncrosslinked micelle).
T1 chain: {Butanoyl(4-Ph)}-H[dF]RWGK(Butanoyl(4-ethynyl))-NH2
In words: Eu-NDP-α-MSH time-resolved fluorescence whole-cell competition binding.

[ ]: non-standard residue; d: D form. The star is where a group is joined. Butanoyl(4-Ph) = O=C(CCCc1ccccc1)*; Butanoyl(4-ethynyl) = C#CCCCC(=O)*

B1: Melanocortin 1 receptor (protein)
chain: MAVQGSQRRLLGSLNSTPTAIPQLGLAANQTGARCLEVSISDGLFLSLGLVSLVENALVVATIAKNRNLHSPMYCFICCLALSDLLVSGSNVLETAVILLLEAGALVARAAVLQQLDNVIDVITCSSMLSSLCFLGAIAVDRYISIFYALRYHSIVTLPRARRAVAAIWVASVVFSTLFIAYYDHVAVLLCLVVFFLAMLVLMAVLYVHMLARACQHAQGIARLHKRQRPVHQGFGLKGAVTLTILLGIFFLCWGPFFLHLTLIVLCPEHPTCGCIFKNFNLFLALIICNAIIDPLIYAFHSQELRRTLKEVLTCSW
The term Ki denotes the dissociation constant of the complex between target and ligand, obtained from inhibition or displacement. The molecule B1 came in with a Ki of 12 nM.
